Common to all, as to test: scFv ELISA
Background: An ELISA detects its analyte on a solid surface through an enzyme-linked reagent.

Assay [1] concerns the target Peptide 5: Biotin-…-[Tyr(PC)]-acid.
Assay [2] has as its target Peptide 1: Biotin-…-[Tyr(PC)]-acid.
Assay [3] deals with BSA (UniProt P02769).
For assay [4], the target named is T1, Peptide 4: Biotin-AGGGGSGGGGSGGGGSAAA-Tyr-acid (N-terminal biotin; C-terminal acid).
T1 construct: control peptide without PC
T1 peptide: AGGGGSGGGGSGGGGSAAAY
Here is the method: (§1) For ELISA analysis of scFv binding, 96-well polystyrene plates were coated with Peptide 1, 4, 5, 8 or 100 μL BSA (10 μg/mL) in PBS at 4° C. overnight. Plates were washed three times with PBS-Tween and blocked with 100 μL 1% BSA-TBS for 1 hour at room temperature. 96-well streptavidin coated plates were coated with 100 μL biotinylated PC-peptides (1 μg/mL) in PBS for 1 hour at room temperature.
(§2) All plates were washed three times with PBS-Tween before 40 μL aliquots of PPE were added to assay plates along with 50 μL 10% BSA, and plates were incubated for 1 hour at room temperature. After washing, […] HRP conjugated anti-V5 in 5% BSA was added, and plates were incubated at room temperature for 30 mins. Plates were washed and 100 μL TMB substrate was added. Color was left to develop at room temperature before the reaction was stopped with 100 μL 1N HCl. The amount of scFv bound to each well was quantitated from absorbance measurement at 450 nm (OD450).

The target of assay [5] is T2, Peptide 8: Biotin-AEAAAKEAAAKEAAAKEAAAKAAA-Tyr-acid (N-terminal biotin; C-terminal acid).
T2 construct: control peptide without PC
T2 peptide: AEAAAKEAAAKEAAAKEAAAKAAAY
How it is done:
as §1, §2

Chain of BSA (P02769 25-607 limits assumed): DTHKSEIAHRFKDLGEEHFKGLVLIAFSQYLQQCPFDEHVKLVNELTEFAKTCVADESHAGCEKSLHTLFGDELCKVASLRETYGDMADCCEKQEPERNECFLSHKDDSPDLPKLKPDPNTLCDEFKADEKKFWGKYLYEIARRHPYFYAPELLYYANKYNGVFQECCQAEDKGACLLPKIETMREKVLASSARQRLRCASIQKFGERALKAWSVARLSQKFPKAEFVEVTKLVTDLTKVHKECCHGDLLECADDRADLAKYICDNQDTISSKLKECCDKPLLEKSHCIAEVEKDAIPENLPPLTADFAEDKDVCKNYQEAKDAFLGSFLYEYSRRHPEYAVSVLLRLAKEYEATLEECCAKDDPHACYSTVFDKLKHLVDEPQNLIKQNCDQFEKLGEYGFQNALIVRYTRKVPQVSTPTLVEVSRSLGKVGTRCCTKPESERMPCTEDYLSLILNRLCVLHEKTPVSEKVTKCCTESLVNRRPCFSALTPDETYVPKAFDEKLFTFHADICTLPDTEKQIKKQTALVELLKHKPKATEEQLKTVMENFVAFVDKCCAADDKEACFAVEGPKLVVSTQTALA

B1: PcOxP_DB01_F04 (scFv, V domains shown)
VH: EVQLLESGGGLVQPGGSLRLSCAASGFTFSSYYMEWVRQAPGKGLEWVAASRNKYNDYTTEYADSVKGRFTISRDNSKNTLYLQMNSLRAEDTAVYYCARDYYGSSYWYFDVWGQGTLVTVSS
VL: DIQMTQSPSSLSASVGDRVTITCTASESLYSSKHKVHYLAWYQQKPGKAPKLLIYGAVNRYIGVPSRFSGSGSGTDFTLTISSLQPEDFATYYCAQFYRYPLTFGGGTKVEIK
notes: scFv in periplasmic extract
Consider B1, for which the OD450 in assay [1] is 0.57 OD450; in assay [2], 0.36 OD450; in assay [3] it was 0.09 OD450; in assay [4], 0.05 OD450; in assay [5], 0.05 OD450.

B2: PcOxP_DB01_G11 (scFv, V domains shown)
VH: EVQLLESGGGLVQPGGSLRLSCAASGFTFSDGYMEWVRQAPGKGLEWVAASRNKNNDYTTEYADSVKGRFTISRDNSKNTLYLQMNSLRAEDTAVYYCARDYFGSSYWYFDVWGQGTLVTVSS
VL: DIQMTQSPSSLSASVGDRVTITCTASESLYSSKHKVHYLAWYQQKPGKAPKLLIYGASNRYIGVPSRFSGSGSGTDFTLTISSLQPEDFATYYCAQFYSYPLTFGGGTKVEIK
notes: scFv in periplasmic extract
On to B2, for which the OD450 in assay [1] came to 1.32 OD450; in assay [2] it was 0.99 OD450; in assay [3], 0.09 OD450; in assay [4], 0.06 OD450; in assay [5], 0.06 OD450.

B3: PcOxP_DB01_G09 (scFv, V domains shown)
VH: EVQLLESGGGLVQPGGSLRLSCAASGFTFSDYYMEWVRQAPGKGLEWVAASRNKANTYTTEYADSVKGRFTISRDNSKNTLYLQMNSLRAEDTAVYYCARDYYGSSYWYFDVWGQGTLVTVSS
VL: DIQMTQSPSSLSASVGDRVTITCTASESLYSSKHKVHYLAWYQQKPGKAPKLLIYGASNLYSGVPSRFSGSGSGTDFTLTISSLQPEDFATYYCAQFYSYPLTFGGGTKVEIK
notes: scFv in periplasmic extract
As to B3, the OD450 came out at 1.4 OD450 in assay [1]; 0.92 OD450 in assay [2]; 0.11 OD450 in assay [3]; 0.06 OD450 in assay [4]; 0.05 OD450 in assay [5].

B4: PcOxP_DB01_F10 (scFv, V domains shown)
VH: EVQLLESGGGLVQPGGSLRLSCAASGFTFSSYYMEWVRQAPGKGLEWVAASRNKANDYTTEYADSVKGRFTISRDNSKNTLYLQMNSLRAEDTAVYYCARDYYGSSYWYFDVWGQGTLVTVSS
VL: DIQMTQSPSSLSASVGDRVTITCTASESLYSSKHKVHYLAWYQQKPGKAPKLLIYGASNGYIGVPSRFSGSGSGTDFTLTISSLQPEDFATYYCAQFYTYPLTFGGGTKVEIK
notes: scFv in periplasmic extract
As to B4, the OD450 in assay [1] came out at 0.98 OD450; in assay [2] it was 0.68 OD450; in assay [3] it was 0.09 OD450; in assay [4], 0.05 OD450; in assay [5] it was 0.05 OD450.

B5: PcOxP_DB01_G12 (scFv, V domains shown)
VH: EVQLLESGGGLVQPGGSLRLSCAASGFTFSDGYMEWVRQAPGKGLEWVAASRNKANDYTTEYADSVKGRFTISRDNSKNTLYLQMNSLRAEDTAVYYCARDYYGSSYWYFDVWGQGTLVTVSS
VL: DIQMTQSPSSLSASVGDRVTITCTASESLYSSKHKVHYLAWYQQKPGKAPKLLIYGASNRYFGVPSRFSGSGSGTDFTLTISSLQPEDFATYYCAQFYSYPLTFGGGTKVEIK
notes: scFv in periplasmic extract
Take B5: the OD450 in assay [1] was 1.33 OD450; in assay [2] it was 0.75 OD450; in assay [3], 0.09 OD450; in assay [4] it was 0.07 OD450; in assay [5], 0.06 OD450.

B6: PcOxP_DB01_G01 (scFv, V domains shown)
VH: EVQLLESGGGLVQPGGSLRLSCAASGFTGSDFYMEWVRQAPGKGLEWVAASRNKGNSYTTEYADSVKGRFTISRDNSKNTLYLQMNSLRAEDTAVYYCARDYYGSSYWYFDVWGQGTLVTVSS
VL: DIQMTQSPSSLSASVGDRVTITCTASESLYGSKHKVHYLAWYQQKPGKAPKLLIYGASNRYSGVPSRFSGSGSGTDFTLTISSLQPEDFATYYCAQFYSYPLTFGGGTKVEIK
notes: scFv in periplasmic extract
Regarding B6, the OD450 in assay [1] was 1.33 OD450; in assay [2] it was 0.58 OD450; in assay [3], 0.09 OD450; in assay [4] it was 0.06 OD450; in assay [5], 0.05 OD450.

The values above are taken from patent US20250320312A1 (OXITOPE PHARMA B V, published 2025).
